Measured values as given in patent publication US7078511B1.

How the values were obtained:
[1] = target: Drosophila melanogaster scavenger receptor type CI (Drosophila melanogaster)
[2] = target: hamster scavenger receptor type BI (hamster); experiment: ^125I-AcLDL (5 µg/ml) binding at 4° C. to ldlA[haSR-BI] cells, no competitor

Poly D-glutamic acid (peptide)
^125I-AcLDL Degradation (% No Competitor) (% No Competitor) [1]: 34

acetylated low density lipoprotein
^125I-AcLDL Degradation (% No Competitor) (% No Competitor) [1]: 4.8
125I-AcLDL binding (ng/mg cell protein) [2]: 293

low density lipoprotein
^125I-AcLDL Degradation (% No Competitor) (% No Competitor) [1]: 97.6
